Molecular target: T1, human fibrinogen (human, UniProt P02671 20-629; P02675 31-491; P02679 27-437, limits assumed)
T1 construct: Bought protein, used as the negative control antigen; also called fibrinogen from human (Sigma)
T1 sequence (looked up) 1: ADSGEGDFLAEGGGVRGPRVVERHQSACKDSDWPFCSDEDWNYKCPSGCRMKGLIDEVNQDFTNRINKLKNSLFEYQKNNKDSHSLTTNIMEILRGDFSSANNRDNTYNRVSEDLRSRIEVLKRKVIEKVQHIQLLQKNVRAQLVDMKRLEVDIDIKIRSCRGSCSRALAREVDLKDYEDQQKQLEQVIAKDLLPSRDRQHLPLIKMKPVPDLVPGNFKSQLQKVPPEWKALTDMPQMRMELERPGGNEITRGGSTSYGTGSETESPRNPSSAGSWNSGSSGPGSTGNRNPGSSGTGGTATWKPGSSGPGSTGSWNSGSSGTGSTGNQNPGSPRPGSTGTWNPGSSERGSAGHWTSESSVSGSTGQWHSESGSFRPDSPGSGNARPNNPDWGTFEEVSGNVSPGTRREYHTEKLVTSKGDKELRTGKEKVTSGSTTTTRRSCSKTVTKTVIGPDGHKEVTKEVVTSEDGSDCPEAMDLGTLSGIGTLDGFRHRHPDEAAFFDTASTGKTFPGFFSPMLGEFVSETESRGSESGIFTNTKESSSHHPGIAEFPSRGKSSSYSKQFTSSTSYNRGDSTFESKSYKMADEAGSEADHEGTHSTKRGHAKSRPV
T1 sequence (looked up) 2: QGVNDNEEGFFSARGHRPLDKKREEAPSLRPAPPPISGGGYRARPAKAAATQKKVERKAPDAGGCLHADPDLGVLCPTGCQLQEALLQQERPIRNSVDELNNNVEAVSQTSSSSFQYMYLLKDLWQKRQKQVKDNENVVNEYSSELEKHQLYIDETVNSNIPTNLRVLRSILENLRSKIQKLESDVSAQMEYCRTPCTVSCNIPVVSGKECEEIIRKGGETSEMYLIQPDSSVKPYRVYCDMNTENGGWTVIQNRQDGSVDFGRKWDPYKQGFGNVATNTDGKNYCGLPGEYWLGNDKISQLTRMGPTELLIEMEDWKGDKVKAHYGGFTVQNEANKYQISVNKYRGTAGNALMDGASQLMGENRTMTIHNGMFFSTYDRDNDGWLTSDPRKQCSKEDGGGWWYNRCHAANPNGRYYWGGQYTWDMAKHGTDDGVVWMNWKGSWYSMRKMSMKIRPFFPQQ
T1 sequence (looked up) 3: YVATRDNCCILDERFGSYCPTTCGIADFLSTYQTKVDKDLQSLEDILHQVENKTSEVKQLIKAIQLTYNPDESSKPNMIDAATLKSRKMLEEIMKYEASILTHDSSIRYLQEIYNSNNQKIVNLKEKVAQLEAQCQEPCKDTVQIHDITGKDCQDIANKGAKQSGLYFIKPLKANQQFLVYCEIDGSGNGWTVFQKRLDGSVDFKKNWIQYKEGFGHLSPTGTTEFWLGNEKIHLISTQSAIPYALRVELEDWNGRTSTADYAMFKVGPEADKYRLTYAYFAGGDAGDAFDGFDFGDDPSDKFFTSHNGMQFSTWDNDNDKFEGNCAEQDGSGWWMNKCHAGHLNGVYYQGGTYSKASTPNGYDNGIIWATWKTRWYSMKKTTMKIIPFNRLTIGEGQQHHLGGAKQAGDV
Experiment: ELISA, HRP-conjugated polyclonal rabbit anti-reteplase antibody

binding result: no binding
B1: recombinant (3D5 VL-(G4S)3-VH scFv α fibrin)-reteplase polypeptide (other)
chain: DIQMTQSPSSLSASVGDRVTITCRASQDVSNNVAWYQQKPGKAPKLLIFWSPWLYSGVPSRFSGSGSGTDFTLTISSLQPEDFATYYCQQGWDSPVTFGQGTKVEIKRGSTSGSGKPGSGEGSTKGEVQLVESGGGLVQPGGSLRLSCAASGFTISDFGIHWVRQAPGKGLEWVASIWPSGGYTYYADSVKGRFTISADTSKNTAYLQMNSLRAEDTAVYYCARSWFYSWYDYWGQGTLVTVSSASGGGGSGGGGSGGGGSSYQGNSDCYFGNGSAYRGTHSLTESGASCLPWNSMILIGKVYTAQNPSAQALGLGKHNYCRNPDGDAKPWCHVLKNRRLTWEYCDVPSCSTCGLRQYSQPQFRIKGGLFADIASHPWQAAIFAKHRRSPGERFLCGGILISSCWILSAAHCFQERFPPHHLTVILGRTYRVVPGEEEQKFEVEKYIVHKEFDDDTYDNDIALLQLKSDSSRCAQESSVVRTVCLPPADLQLPDWTECELSGYGKHEALSPFYSERLKEAHVRLYPSSRCTSQHLLNRTVTDNMLCAGDTRSGGPQANLHDACQGDSGGPLVCLNDGRMTLVGIISWGLGCGQKDVPGVYTKVTNYLDWIRDNMRPA
notes: Fusion: 3D5 scFv (VL, flexible linker, VH) at the N-terminus of reteplase through a flexible linker; also called (3D5 scFv)-reteplase
